Data: IntAct's records for PubMed 24819706

B1: Transcriptional activator GLI3 (Homo sapiens), P10071 (parent)
chain: MEAQSHSSTTTEKKKVENSIVKCSTRTDVSEKAVASSTTSNEDESPGQTYHRERRNAITMQPQNVQGLSKVSEEPSTSSDERASLIKKEIHGSLPHVAEPSVPYRGTVFAMDPRNGYMEPHYHPPHLFPAFHPPVPIDARHHEGRYHYDPSPIPPLHMTSALSSSPTYPDLPFIRISPHRNPTAASESPFSPPHPYINPYMDYIRSLHSSPSLSMISATRGLSPTDAPHAGVSPAEYYHQMALLTGQRSPYADIIPSAATAGTGAIHMEYLHAMDSTRFSSPRLSARPSRKRTLSISPLSDHSFDLQTMIRTSPNSLVTILNNSRSSSSASGSYGHLSASAISPALSFTYSSAPVSLHMHQQILSRQQSLGSAFGHSPPLIHPAPTFPTQRPIPGIPTVLNPVQVSSGPSESSQNKPTSESAVSSTGDPMHNKRSKIKPDEDLPSPGARGQQEQPEGTTLVKEEGDKDESKQEPEVIYETNCHWEGCAREFDTQEQLVHHINNDHIHGEKKEFVCRWLDCSREQKPFKAQYMLVVHMRRHTGEKPHKCTFEGCTKAYSRLENLKTHLRSHTGEKPYVCEHEGCNKAFSNASDRAKHQNRTHSNEKPYVCKIPGCTKRYTDPSSLRKHVKTVHGPEAHVTKKQRGDIHPRPPPPRDSGSHSQSRSPGRPTQGALGEQQDLSNTTSKREECLQVKTVKAEKPMTSQPSPGGQSSCSSQQSPISNYSNSGLELPLTDGGSIGDLSAIDETPIMDSTISTATTALALQARRNPAGTKWMEHVKLERLKQVNGMFPRLNPILPPKAPAVSPLIGNGTQSNNTCSLGGPMTLLPGRSDLSGVDVTMLNMLNRRDSSASTISSAYLSSRRSSGISPCFSSRRSSEASQAEGRPQNVSVADSYDPISTDASRRSSEASQSDGLPSLLSLTPAQQYRLKAKYAAATGGPPPTPLPNMERMSLKTRLALLGDALEPGVALPPVHAPRRCSDGGAHGYGRRHLQPHDAPGHGVRRASDPVRTGSEGLALPRVPRFSSLSSCNPPAMATSAEKRSLVLQNYTRPEGGQSRNFHSSPCPPSITENVTLESLTMDADANLNDEDFLPDDVVQYLNSQNQAGYEQHFPSALPDDSKVPHGPGDFDAPGLPDSHAGQQFHALEQPCPEGSKTDLPIQWNEVSSGSADLSSSKLKCGPRPAVPQTRAFGFCNGMVVHPQNPLRSGPAGGYQTLGENSNPYGGPEHLMLHNSPGSGTSGNAFHEQPCKAPQYGNCLNRQPVAPGALDGACGAGIQASKLKSTPMQGSGGQLNFGLPVAPNESAGSMVNGMQNQDPVGQGYLAHQLLGDSMQHPGAGRPGQQMLGQISATSHINIYQGPESCLPGAHGMGSQPSSLAVVRGYQPCASFGGSRRQAMPRDSLALQSGQLSDTSQTCRVNGIKMEMKGQPHPLCSNLQNYSGQFYDQTVGFSQQDTKAGSFSISDASCLLQGTSAKNSELLSPGANQVTSTVDSLDSHDLEGVQIDFDAIIDDGDHSSLMSGALSPSIIQNLSHSSSRLTTPRASLPFPALSMSTTNMAIGDMSSLLTSLAEESKFLAVMQ
partner: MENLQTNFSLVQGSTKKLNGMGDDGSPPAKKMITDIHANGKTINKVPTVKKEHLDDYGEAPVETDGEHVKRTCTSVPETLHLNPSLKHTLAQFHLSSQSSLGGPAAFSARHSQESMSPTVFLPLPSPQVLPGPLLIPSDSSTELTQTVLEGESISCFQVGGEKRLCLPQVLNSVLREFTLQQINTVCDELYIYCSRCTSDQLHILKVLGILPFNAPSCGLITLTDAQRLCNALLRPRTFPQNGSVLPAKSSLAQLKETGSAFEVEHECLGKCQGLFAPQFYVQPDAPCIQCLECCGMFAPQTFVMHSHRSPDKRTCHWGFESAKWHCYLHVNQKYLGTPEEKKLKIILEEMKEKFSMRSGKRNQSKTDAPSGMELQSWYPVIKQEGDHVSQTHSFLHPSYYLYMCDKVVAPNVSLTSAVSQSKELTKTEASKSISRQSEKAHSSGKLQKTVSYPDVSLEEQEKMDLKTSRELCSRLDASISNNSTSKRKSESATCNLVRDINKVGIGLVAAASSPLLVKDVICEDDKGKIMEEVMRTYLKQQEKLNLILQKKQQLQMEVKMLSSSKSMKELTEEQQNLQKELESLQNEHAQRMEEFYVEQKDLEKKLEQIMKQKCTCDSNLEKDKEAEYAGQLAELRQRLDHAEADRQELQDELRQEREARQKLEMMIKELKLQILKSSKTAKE

Variants of: B1
Details: with skil_human SKIL

effect of a mutation on the interaction	Variant
decreasing interaction strength	M111T
